From US20180196058A1

Molecular target: Recombinant human IFN-gamma (eBioscience) (human) (UniProt P01579)
Assay: sandwich on beads, LC MS/MS of released iCOREs; IFN-gamma iCORE peak against the peak of the iCORE on the anti-TNF-alpha detection antibody

Sequence of Recombinant human IFN-gamma (eBioscience) (human) (P01579 24-166 limits assumed): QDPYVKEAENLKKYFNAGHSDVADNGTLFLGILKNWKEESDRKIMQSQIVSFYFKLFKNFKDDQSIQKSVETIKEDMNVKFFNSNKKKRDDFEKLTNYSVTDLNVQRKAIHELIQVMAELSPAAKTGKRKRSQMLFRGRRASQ

Q: Which signal to noise does the source give for “iCORE-labeled detection antibody against human IFN-gamma, clone 4S.B3 (eBioscience)” here?
A: 10
